Results: PMC3937519

How the values were obtained:
[1] = target: Vif V25A-CBF-β-Elo B/C complex (HIV-1 NL4.3 | human | not stated) (UniProt Q13951); assay: ITC
[2] = target: wild-type Vif-CBF-β-Elo B/C complex (HIV-1 NL4.3 | human | not stated) (UniProt Q13951); assay: ITC
[3] = target: Vif H108A-CBF-β-Elo B/C complex (HIV-1 NL4.3 | human | not stated) (UniProt Q13951); assay: ITC
[4] = target: Vif H27A-CBF-β-Elo B/C complex (HIV-1 NL4.3 | human | not stated) (UniProt Q13951); assay: ITC
[5] = target: HIV-1 NL4.3 Vif H27A, recombinant (E. coli) (HIV-1 NL4.3); assay: pull-down
[6] = target: HIV-1 NL4.3 Vif M29A, recombinant (E. coli) (HIV-1 NL4.3); assay: pull-down
[7] = target: HIV-1 NL4.3 Vif H28A, recombinant (E. coli) (HIV-1 NL4.3); assay: pull-down
[8] = target: HIV-1 NL4.3 Vif Y30A, recombinant (E. coli) (HIV-1 NL4.3); assay: pull-down

Substance | Kd [1] | Kd [2] | dH [2] | Kd [3] | dH [3] | Kd [4] | percent reduction of Cul5 binding against wild-type Vif [5] | percent reduction of Cul5 binding against wild-type Vif [6] | percent reduction of Cul5 binding against wild-type Vif [7] | percent reduction of Cul5 binding against wild-type Vif [8]
Cul5-NTD (residues 1 to 393, V341R, L345D) (from UniProt Q93034 1-393) (domain or fragment) | 511 nM | 5.9 nM | -9 kcal/mol | 36 nM | -4 kcal/mol | 660 nM | – | – | – | –
N-terminal Cul5, co-expressed in E. coli (Cul5/Vif pET-Duet) (domain or fragment) | – | – | – | – | – | – | > 60% | > 60% | 20% | > 60%
